The subject of one assay is B-DNA. Description: Binding of small peptides to B-DNA and conversion to the Z conformation. It is filed as biochemical. The source says:
A subportion of this histone-like region from amino acids 306 to 339 (heavily underlined in FIG. 1) is a likely candidate for a DNA-binding domain. […] The KAKAX motif (SEQ ID NO: 31) (where X is variable) occurs twice in the 306-339 region and also occurs in the peptide, EAK16. These observations are consistent with the structural similarity of this region to histone H1.

Assay [1] concerns poly(dG-m^5dC) in the Z-form. Kind of assay: Gel retardation (band shift) and competition assay for Z-DNA binding. The note with it: for competition of binding to poly(dG-m^5dC) by non-Z DNA: excess poly(dG-dC), poly(dA-dT), salmon sperm DNA; for affinity for Z-DNA relative to B-DNA: not purified to homogeneity, estimated. The text has this:
Two probes that can be stabilized in the Z-form were used to detect potential Z-DNA binding proteins. One is an ˜600 bp fragment of ^32P-labelled poly(dG-m^5dC) that is stabilized in the Z-DNA form by millimolar concentrations of MgCl2 (Behe and Felsenfeld, 1981); the other is an oligonucleotide, [^32P] (dG-BR^5dC)22, that can be stabilized by millimolar concentrations of MgCl2 or μM concentrations of Co(NH3)6^3+. Yeast whole cell extract, nuclear extracts, and phosphocellulose column fractions of yeast nuclear extracts were assayed by a gel retardation assay using either of these ^32P-labelled DNA fragments as a probe. The gel retardation assay was carried out with the probe in the presence of 10 mM MgCl2 and a 400-fold excess of sheared salmon sperm B-DNA. Under these conditions, the polymer assumes the Z-DNA conformation. A Z-DNA-specific antibody was used for positive control. 1 μl of each fraction of yeast nuclear extract obtained by salt elution from the phosphocellulose column with 0.2-0.5 M potassium phosphate (pH 7.4) was added to the assays.
In order to determine if these band shifts were the result of authentic Z-DNA binding, negatively supercoiled plasmids of pUC19 and pUC19(GC) were used as competitor DNAs in gel retardation competition assays. In these assays, [^32P] (dG-Br^5dC)22 was incubated in the presence of a 2000-fold excess of sheared salmon sperm DNA with additions as follows: 1) no addition; 2) a monoclonal anti-Z-DNA antibody (mAb); 3) mAb plus additional 50 ng of negatively supercoiled plasmid pUC19 (without a Z-DNA insert); 4) mAb plus 25 ng of negatively supercoiled pUC19(CG) (containing a Z-DNA segment); 5) fraction F1 yeast protein; 6) F1 plus additional 50 ng pUC19; and 7) F1 plus pUC19(GC). pUC19(GC) contains a 14 bp (dG-dC)7 insert that can adopt the Z-conformation upon negative supercoiling. pUC19(GC) was assayed for its resistance to BssHII digestion (Vardimon and Rich, 1983; Azorin et al., 1984) to confirm the presence of the Z-DNA prior to the assay.
However, enough material was in solution so that crude cell extracts and partially purified zuotin could be prepared and assayed by the band shift assay. Recombinant zuotin was partially purified by chromatography of crude cell extract from induced pETZU01 transformants through phosphocellulose. ^32P-labelled poly(dG-m5dC) in the Z-form was incubated with the crude cell extract or with partially purified zuotin in the presence of sheared salmon sperm DNA, poly(dG-dC), or poly(dG-Br^5dC). Assays were run on: 1) labelled probe alone; 2) crude cell extract from induced pET8c transformants; 3) crude cell extract from uninduced pETZU01 transformants; 4) crude cell extract from induced pETZU01 transformants; 5) partially purified recombinant zuotin; 6) partially purified yeast zuotin; 7)-10) partially purified recombinant zuotin with 20-, 40-, 100-, and 200-fold excess of salmon sperm DNA; 11)-12) partially purified recombinant zuotin with 20- and 40-fold excess of poly(dG-dC); 13)-14) partially purified recombinant zuotin with 20- and 40-fold excess of poly(dG-Br^5dC); 15)-17) partially purified yeast zuotin with 20-, 40-, and 200-fold excess of salmon sperm DNA; 18) partially purified yeast zuotin with 40-fold excess of poly(dG-dC); 19) partially purified yeast zuotin with 40-fold excess of poly(dG-Br^5dC); and 20) an anti-Z-antibody (as control).
A gel retardation assay was employed to detect proteins with affinity to left-handed Z-DNA. […]

Changes are numbered by the printed parent chain. “Also recorded” adds a separate entry of the source.

As to KAK, the “binding to B-DNA and conversion to Z-DNA” value in the assay on B-DNA was “able to bind to B-DNA and convert it to the Z conformation”.
Still for that read-out and setting: next, KAKAK: “able to bind to B-DNA and convert it to the Z conformation”; KAHAK: “active in converting B-DNA to Z-DNA only when the histidine was protonated (at low pH)”.

B1: zuotin: 433 amino acid yeast putative Z-DNA binding protein, SEQ ID NO: 2 (protein)
chain: MFSLPTLTSDITVEVNSSATKTPFVRRPVEPVGKFFLQHAQRTLRNHTWSEFERIEAEKNVKTVDESNVDPDELLFDTELADEDLLTHDARDWKTADLYAAMGLSKLRFRATESQIIKAHRKQVVKYHPDKQSAAGGSLDQDGFFKIIQKAFETLTDSNKRAQYDSCDFVADVPPPKKGTDYDFYEAWGPVFEAEARFSKKTPIPSLGNKDSSKKEVEQFYAFWHRFDSWRTFEFLDEDVPDDSSNRDHKRYIERKNKAARDKKKTADNARLVKLVERAVSEDPRIKMFKEEEKKEKERRKWEREAGARAEAEAKAKAEAEAKAKAESEAKANASAKADKKKAKEAAKAAKKKNKRAIRNSAKEADYFGDADKATTIDEQVGLIVDSLNDEELVSTADKIKANAAGAKEVLKESAKTIVDSGKLPSSLLSYFV
For the molecule B1, in assay [1], the “excess of poly(dG-Br^5dC) in the Z-form that completely inhibits binding to the probe” value was determined as 4 fold and the “competition of binding to poly(dG-m^5dC) by non-Z DNA” value is “cannot be competed by 40-fold excess of poly(dG-dC), 200-fold excess of poly(dA-dT), nor several thousand-fold of salmon sperm DNA”. Besides, the “affinity for Z-DNA relative to B-DNA” value in assay [1] (listed as yeast zuotin) was “bound Z-DNA more tightly than the bacterially expressed zuotin; also recorded: several hundred-fold enhanced affinity for Z-DNA relative to B-DNA”.

B2: bacterially expressed zuotin: zuotin expressed in E. coli with T7 pET system, Phe→Val after Met (protein, UniProt P32527 1-433, looked up, variant F2V)
Zuotin: B1 chain with F2V
With B2, in assay [1], the “competition of binding to poly(dG-m^5dC) by non-Z DNA” value was “cannot be competed by 40-fold excess of poly(dG-dC), 200-fold excess of poly(dA-dT), nor several thousand-fold of salmon sperm DNA” and the “affinity for Z-DNA relative to B-DNA” value is reported as “binds less tightly”.

These data come from US6800481B1, “Stable macroscopic membranes formed by self-assembly of amphiphilic peptides and uses therefor” (priority 1992, dated 2004).
